This experiment has as its target HA-tagged Filamin 1 (HA-Filamin 1). Description: cell-based or functional assay.

With “S-FILIP (short form Filamin-interacting protein) (from UniProt Q8K4T4 248-965)”, the relative amount of recombinant Filamin 1 and GFP came to 1.8.

Values taken from patent US20040229797A1.
